Earlier results on one substance are cited in publication PMC3245798.

The target of this data set is SLAM (Homo sapiens) (UniProt Q13291). The settings on record: cited from earlier work.
Sequence of UniProt Q13291 (Q13291 21-335): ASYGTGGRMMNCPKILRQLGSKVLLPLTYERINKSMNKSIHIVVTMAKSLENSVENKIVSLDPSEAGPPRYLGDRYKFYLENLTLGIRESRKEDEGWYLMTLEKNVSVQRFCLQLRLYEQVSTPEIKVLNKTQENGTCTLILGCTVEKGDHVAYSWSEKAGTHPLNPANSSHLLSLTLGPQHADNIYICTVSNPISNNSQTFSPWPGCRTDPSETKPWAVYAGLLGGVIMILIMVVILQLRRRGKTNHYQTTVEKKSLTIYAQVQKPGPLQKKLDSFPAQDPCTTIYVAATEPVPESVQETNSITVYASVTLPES

Take “measles virus hemagglutinin (H) (from UniProt P08362)”: the dissociation constant (Kd) is 80 nM.
